# Test results: article PMC5691035 (Nature Communications, 2017)
# Target: Pfs25, monomeric, Nicotiana benthamiana-produced (Plasmodium falciparum (NF54; identical …, UniProt P13829)
# Test: BLI
# Details: both partners purified
# Chain of Pfs25, monomeric, Nicotiana benthamiana-produced (Plasmodium falciparum (P13829 17-196): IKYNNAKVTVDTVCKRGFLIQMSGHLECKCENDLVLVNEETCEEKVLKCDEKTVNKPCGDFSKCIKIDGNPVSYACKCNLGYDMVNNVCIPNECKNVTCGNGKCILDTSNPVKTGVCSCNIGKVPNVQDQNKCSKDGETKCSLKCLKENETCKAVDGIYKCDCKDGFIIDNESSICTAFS
Binder,Kd [nM],binding result
"1269 Fab (Fab, V domains shown, also called mAb 1269; source: HEK293F, transient, purified (KappaSelect or LambdaSelect, MonoS, SEC)) VH: EVQLVESGGGLVQSGGSLRLSCAASGFTFSRNAMNWVRQAPGKGLEWVSTISGSGDSTYYADSVKGRFTISRDNSKNTLYLQVNSLRAEDTAVYYCAKGDYYFDSGSYSFGMDVWGQGTTVTVSS VL: EIVLTQSPGTLSLSPGERATLSCRTSQSVSSSYLAWYQQKPGQAPRLLMYGASSRATGIPDRFSGSGSGTDFTLTISRLEPEDFAVYYCQQYGNSFGQGTRLEIK",3.7,–
"1260 Fab (Fab, V domains shown, also called mAb 1260; source: HEK293F, transient, purified (KappaSelect or LambdaSelect, MonoS, SEC)) VH: QVQLVQSGAEVKKPGASVKVSCRASGYIFTSYGFSWVRQAPGQGLEWMGWISAYNGNTDYSQKLQGRVTMTTDTSTNTVYMELRTLQSDDTAVYYCARDRGDRLYYYYYYGMDVWGQGTTVTVSS VL: not shown",–,binds
"1266 Fab (Fab, V domains shown, also called mAb 1266; source: HEK293F, transient, purified (KappaSelect or LambdaSelect, MonoS, SEC)) VH: QVQLQQSGPGLVKPSQTLSLTCAISGDSVSSNSAAWNWIRQSPSRGLEWLGRTYYRSKWYNDYAVSVKSRITINADTSKNQFSLQLNSVTPEDTAVYYCVRDLLGSSGWYVFFDNWGQGTLVTVSS VL: SYELTQPPSVSVSPGQSARITCSGDALPMKYAYWYQQKSGQAPVLVIYEDSKRPSGIPERFSGSSSGTMATLTISGAQVEDEADYYCFSTDSSGNHRVFGGGTKLT",–,binds
"1267 Fab (Fab, V domains shown, also called mAb 1267; source: HEK293F, transient, purified (KappaSelect or LambdaSelect, MonoS, SEC)) VH: QVQLQQSGPGLVKPSQTLSLTCAISGDSVSSNSAAWNWIRQSPSRGLEWLGRTYYRSKWYNDYAVSVRGRITINPDTSKNHFSLQLNSVTPEDTAVYFCARDLMTNSGWYVYFDCWGQGTLVTVSS VL: SYELTQPPSVSVSPGQSARITCSGDALPMKYAYWYQQKSGQAPVLVIYEDSKRPSGIPERFSGSSSGTMATLTISGAQVEDEADYYCFSTDSSGNHRVFGGGTKLT",–,binds
"1202 Fab (Fab, V domains shown, also called mAb 1202; source: HEK293F, transient, purified (KappaSelect or LambdaSelect, MonoS, SEC)) VH: QVQLVESGGDLVKPGGSLRLSCAASGFTFSDHYMNWIRQAPGKGLEWVSYISSSGSTIYYSDSVKGRFTISRDNAKYLLSLQMNSLRAEDTAVYFCARDPMVRGFHDAFDIWGQGTMVTVSS VL: SYELTQPPSVSVSPGQTASITCSGDKLGDKYASWYQQKPGQSPVLVIFQDNKRPSGIPERFSGSNSGNTATLTISETQAMDEADYYCQAWDISTAVFGTGTNVT",–,binds
"1262 Fab (Fab, V domains shown, also called mAb 1262; source: HEK293F, transient, purified (KappaSelect or LambdaSelect, MonoS, SEC)) VH: QVQLQESGPGLVKPSGTLSLTCAVSGGSISSSHWWSWVRQPPGKGLEWVGEISLSGSTHYGPSLKSRVSISLDKSMNHFSLRLSSVTAADTAVYYCARESRFYGAYFDYWGQGTLVTVSS VL: DIQLTQSPSFLSASVGDRVTITCWASQGINSYLAWYQQKPGKTPKLLIYAASTLQSGVPSRFSGSGSGTEFTLTISSLQPEDFATYYCQQLNSYPCSFGQGTTLEIK",–,binds
"1268 Fab (Fab, V domains shown, also called mAb 1268; source: HEK293F, transient, purified (KappaSelect or LambdaSelect, MonoS, SEC)) VH: EVQLVESGGGLVKPGGSLRLSCAASGFTFSRYSMNWVRQAPGKGLEWVSSISSRSSYKYYVDSVKGRFTISRDNAKNSLYLQMNSLRAEDTAVYYCARDDYGSGSYYYNWLDPWGQGTLVTVSS VL: DIQLTQSPSFLSASVGDRVTITCWASQGISSFLAWYQQKPGKAPKLLIYAASTLESGVPSRFSGSGSGTEFTLTISSLQPEDFATYYCQQLNSYPRTFGQGTKVEIK",–,binds
"1269 IgG (antibody, V domains shown, IgG1; also called mAb 1269; source: HEK293, transient, purified from conditioned medium (Protein A); synthesized by LakePharma) VH: EVQLVESGGGLVQSGGSLRLSCAASGFTFSRNAMNWVRQAPGKGLEWVSTISGSGDSTYYADSVKGRFTISRDNSKNTLYLQVNSLRAEDTAVYYCAKGDYYFDSGSYSFGMDVWGQGTTVTVSS VL: EIVLTQSPGTLSLSPGERATLSCRTSQSVSSSYLAWYQQKPGQAPRLLMYGASSRATGIPDRFSGSGSGTDFTLTISRLEPEDFAVYYCQQYGNSFGQGTRLEIK",< 0.001,–
"1245 IgG (antibody, V domains shown, IgG1; also called mAb 1245; source: HEK293, transient, purified from conditioned medium (Protein A); synthesized by LakePharma) VH: QVQLVQSGGEVKKPGASVKVSCKASGYTFTSYGISWVRQAPGQGLEWMGWISAYNGNRKYAQKVQGRVSMTIDTHTSTANMELRSLRSDDTAVYYCAKDRGDGDYRYYYYGMDVWGQGTTVTVSS VL: not shown",< 0.001,–
"1245 Fab (Fab, V domains shown, also called mAb 1245; source: HEK293F, transient, purified (KappaSelect or LambdaSelect, MonoS, SEC)) VH: QVQLVQSGGEVKKPGASVKVSCKASGYTFTSYGISWVRQAPGQGLEWMGWISAYNGNRKYAQKVQGRVSMTIDTHTSTANMELRSLRSDDTAVYYCAKDRGDGDYRYYYYGMDVWGQGTTVTVSS VL: not shown",31,–

# Target: Pfs25, monomeric, produced in Nicotiana benthamiana (Plasmodium falciparum (NF54; identical …, UniProt P13829)
# Sequence (P13829 22-193): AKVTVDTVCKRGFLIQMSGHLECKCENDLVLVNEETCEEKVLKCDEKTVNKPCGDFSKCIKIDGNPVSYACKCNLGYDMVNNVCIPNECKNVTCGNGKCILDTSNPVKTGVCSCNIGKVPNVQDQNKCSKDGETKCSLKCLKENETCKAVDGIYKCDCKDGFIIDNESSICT
# Test: BLI
# Details: both partners purified
Binder,koff [s⁻¹],kon [M⁻¹ s⁻¹],Kd [nM]
"1190 Fab (Fab, V domains shown, source: HEK293F, transiently expressed, purified (LambdaSelect or KappaSelect, MonoS, Superdex 200)) VH: not shown VL: SYVLTQPPSVSVAPGQTARITCGGSNIGSKSVHWYQQKPGQTPMLVIYYDYDRPSGIPERFSGSNSGSTATLTISRVEAGDEADYYCQVWDSSSDHVWVFGGGTTLTVL",0.0021,300000,–
"1260 Fab (Fab, V domains shown, source: HEK293F, transiently expressed, purified (KappaSelect or LambdaSelect, MonoS, Superdex 200)) VH: QVQLVQSGAEVKKPGASVKVSCRASGYIFTSYGFSWVRQAPGQGLEWMGWISAYNGNTDYSQKLQGRVTMTTDTSTNTVYMELRTLQSDDTAVYYCARDRGDRLYYYYYYGMDVWGQGTTVTVSS VL: not shown",0.00093,23000,41
"1262 Fab (Fab, V domains shown, source: HEK293F, transiently expressed, purified (KappaSelect or LambdaSelect, MonoS, Superdex 200)) VH: QVQLQESGPGLVKPSGTLSLTCAVSGGSISSSHWWSWVRQPPGKGLEWVGEISLSGSTHYGPSLKSRVSISLDKSMNHFSLRLSSVTAADTAVYYCARESRFYGAYFDYWGQGTLVTVSS VL: DIQLTQSPSFLSASVGDRVTITCWASQGINSYLAWYQQKPGKTPKLLIYAASTLQSGVPSRFSGSGSGTEFTLTISSLQPEDFATYYCQQLNSYPCSFGQGTTLEIK",0.0011,80000,12
"1266 Fab (Fab, V domains shown, source: HEK293F, transiently expressed, purified (LambdaSelect or KappaSelect, MonoS, Superdex 200)) VH: QVQLQQSGPGLVKPSQTLSLTCAISGDSVSSNSAAWNWIRQSPSRGLEWLGRTYYRSKWYNDYAVSVKSRITINADTSKNQFSLQLNSVTPEDTAVYYCVRDLLGSSGWYVFFDNWGQGTLVTVSS VL: SYELTQPPSVSVSPGQSARITCSGDALPMKYAYWYQQKSGQAPVLVIYEDSKRPSGIPERFSGSSSGTMATLTISGAQVEDEADYYCFSTDSSGNHRVFGGGTKLT",0.012,420000,31
"1267 Fab (Fab, V domains shown, source: HEK293F, transiently expressed, purified (LambdaSelect or KappaSelect, MonoS, Superdex 200)) VH: QVQLQQSGPGLVKPSQTLSLTCAISGDSVSSNSAAWNWIRQSPSRGLEWLGRTYYRSKWYNDYAVSVRGRITINPDTSKNHFSLQLNSVTPEDTAVYFCARDLMTNSGWYVYFDCWGQGTLVTVSS VL: SYELTQPPSVSVSPGQSARITCSGDALPMKYAYWYQQKSGQAPVLVIYEDSKRPSGIPERFSGSSSGTMATLTISGAQVEDEADYYCFSTDSSGNHRVFGGGTKLT",0.0032,430000,7.9
"1268 Fab (Fab, V domains shown, source: HEK293F, transiently expressed, purified (KappaSelect or LambdaSelect, MonoS, Superdex 200)) VH: EVQLVESGGGLVKPGGSLRLSCAASGFTFSRYSMNWVRQAPGKGLEWVSSISSRSSYKYYVDSVKGRFTISRDNAKNSLYLQMNSLRAEDTAVYYCARDDYGSGSYYYNWLDPWGQGTLVTVSS VL: DIQLTQSPSFLSASVGDRVTITCWASQGISSFLAWYQQKPGKAPKLLIYAASTLESGVPSRFSGSGSGTEFTLTISSLQPEDFATYYCQQLNSYPRTFGQGTKVEIK",0.006,93000,67
"1269 Fab (Fab, V domains shown, source: HEK293F, transiently expressed, purified (KappaSelect or LambdaSelect, MonoS, Superdex 200)) VH: EVQLVESGGGLVQSGGSLRLSCAASGFTFSRNAMNWVRQAPGKGLEWVSTISGSGDSTYYADSVKGRFTISRDNSKNTLYLQVNSLRAEDTAVYYCAKGDYYFDSGSYSFGMDVWGQGTTVTVSS VL: EIVLTQSPGTLSLSPGERATLSCRTSQSVSSSYLAWYQQKPGQAPRLLMYGASSRATGIPDRFSGSGSGTDFTLTISRLEPEDFAVYYCQQYGNSFGQGTRLEIK",0.00084,220000,–
"1276 Fab (Fab, V domains shown, source: HEK293F, transiently expressed, purified (LambdaSelect or KappaSelect, MonoS, Superdex 200)) VH: not shown VL: SYVLTQPPSVSVAPGKTAKITCGGNNIGSKSVHWYQQKPGQAPVLVMYYDFDRPSGIPERFSGSNSGNTATLTISRVEAEDEADYYCQVWDSDRYWVFGGGTKLTVL",0.0037,210000,–
"1202 Fab (Fab, V domains shown, source: HEK293F, transiently expressed, purified (LambdaSelect or KappaSelect, MonoS, Superdex 200)) VH: QVQLVESGGDLVKPGGSLRLSCAASGFTFSDHYMNWIRQAPGKGLEWVSYISSSGSTIYYSDSVKGRFTISRDNAKYLLSLQMNSLRAEDTAVYFCARDPMVRGFHDAFDIWGQGTMVTVSS VL: SYELTQPPSVSVSPGQTASITCSGDKLGDKYASWYQQKPGQSPVLVIFQDNKRPSGIPERFSGSNSGNTATLTISETQAMDEADYYCQAWDISTAVFGTGTNVT",0.016,480000,35
"1245 Fab (Fab, V domains shown, source: HEK293F, transiently expressed, purified (KappaSelect or LambdaSelect, MonoS, Superdex 200)) VH: QVQLVQSGGEVKKPGASVKVSCKASGYTFTSYGISWVRQAPGQGLEWMGWISAYNGNRKYAQKVQGRVSMTIDTHTSTANMELRSLRSDDTAVYYCAKDRGDGDYRYYYYGMDVWGQGTTVTVSS VL: not shown",0.00038,22000,–
